Columns and labels:
[1] = biological target: Pwl2-3 (Magnaporthe oryzae); assay: ITC
[2] = biological target: Pwl2-2 (Magnaporthe oryzae); assay: ITC

“HMA domain of OsHIPP43 (residues 26-101) (from UniProt Q8LJL3 26-101) (domain or fragment)” was tested, and the Kd [1] was 35 nM and the Kd [2] was 141 nM.
